Results reported in paper PMC4132792, “Engagement of Nucleotide-binding Oligomerization Domain-containing Protein 1 (NOD1) by Receptor-interacting Protein 2 (RIP2) Is Insufficient for Signal Transduction*” (The Journal of Biological Chemistry, 2014).

B1: His6-tagged recombinant NOD1 CARD (residues 15-110), wild type (domain or fragment, human, UniProt Q9Y239-1 15-110, looked up)
chain: ESHPHIQLLKSNRELLVTHIRNTQCLVDNLLKNDYFSAEDAEIVCACPTQPDKVRKILDLVQSKGEEVSEFFLYLLQQLADAYVDLRPWLLEIGFS
notes: NOD1 CARD domain, human, residues 15-110; the dimer is stabilised by an interprotomer disulfide bond through Cys-39 (from the cited crystal structures); also called wild-type NOD1 CARD; wild-type NOD1
B2: His6-tagged recombinant NOD1 CARD (residues 15-110) N43S (domain or fragment, human, UniProt Q9Y239-1 15-110, looked up)
chain: ESHPHIQLLKSNRELLVTHIRNTQCLVDSLLKNDYFSAEDAEIVCACPTQPDKVRKILDLVQSKGEEVSEFFLYLLQQLADAYVDLRPWLLEIGFS
notes: NOD1 CARD domain, human, residues 15-110, N43S (a rare polymorphism)
B3: His6-tagged recombinant NOD1 CARD (residues 15-110) E53K (domain or fragment, human, UniProt Q9Y239-1 15-110, looked up)
chain: ESHPHIQLLKSNRELLVTHIRNTQCLVDNLLKNDYFSAKDAEIVCACPTQPDKVRKILDLVQSKGEEVSEFFLYLLQQLADAYVDLRPWLLEIGFS
notes: NOD1 CARD domain, human, residues 15-110, E53K
B4: His6-tagged recombinant NOD1 CARD (residues 15-110) D48K (domain or fragment, human, UniProt Q9Y239-1 15-110, looked up)
chain: ESHPHIQLLKSNRELLVTHIRNTQCLVDNLLKNKYFSAEDAEIVCACPTQPDKVRKILDLVQSKGEEVSEFFLYLLQQLADAYVDLRPWLLEIGFS
notes: NOD1 CARD domain, human, residues 15-110, D48K
B5: His6-tagged recombinant NOD1 CARD (residues 15-110) E56K (domain or fragment, human, UniProt Q9Y239-1 15-110, looked up)
chain: ESHPHIQLLKSNRELLVTHIRNTQCLVDNLLKNDYFSAEDAKIVCACPTQPDKVRKILDLVQSKGEEVSEFFLYLLQQLADAYVDLRPWLLEIGFS
notes: NOD1 CARD domain, human, residues 15-110, E56K
B6: His6-tagged recombinant NOD1 CARD (residues 15-110) A55V (domain or fragment, human, UniProt Q9Y239-1 15-110, looked up)
chain: ESHPHIQLLKSNRELLVTHIRNTQCLVDNLLKNDYFSAEDVEIVCACPTQPDKVRKILDLVQSKGEEVSEFFLYLLQQLADAYVDLRPWLLEIGFS
notes: NOD1 CARD domain, human, residues 15-110, A55V (a polymorphism)

Biological target: the molecule itself
Experiment: SEC; Superdex 75 HiLoad 16/60, 25 mM sodium phosphate, 100 mM NaCl, no reducing agent; monomer and dimer

Stoichiometry N, 2:
B1, B2, B3, B4, B5, B6
